Test results published in patent US20090202574A1, “METHODS OF IMMUNE OR HAEMATOLOGICAL ENHANCEMENT, INHIBITING TUMOUR FORMATION OR GROWTH, AND TREATING OR PREVENTING CANCER” (priority 2004, published 2009).

Experiments:
[1] = Western blot detection of bovine lactoferrin in plasma, tumour and organs of fed mice; format: in vivo; details: oral diet
Description: Groups of 5 tumour-bearing mice were fed either the control diet or an iron-saturated bovine lactoferrin diet and treated with paclitaxel or doxorubicin, as indicated. Mice were killed on days described in Example 6 and plasma collected. Referring to FIG. 6, plasma proteins (80 μg) were separated on a 10% polyacrylamide SDS-gel, transferred to a membrane, and blotted with an antibody against bovine lactoferrin (upper panel). The relative amounts of bovine lactoferrin in each lane were recorded by densitometry (lower panel). The order of the plasma samples shown in the histograph is the same for the Western blot. A 75 kDa band characteristic of lactoferrin was present in the plasma samples taken from all the different treatment groups fed bovine lactoferrin, whereas this same band was absent from the plasma of mice fed the control diet (FIG. 6).
Tumour homogenates and sections were screened to determine whether lactoferrin in the systemic circulation reached the tumour site. A group of 5 tumour-bearing mice were fed the control diet or an iron-saturated bovine lactoferrin diet, and treated with paclitaxel and doxorubicin. Mice were killed on days described in Example 6, and tissues from the tumour and small intestine were collected. Tumour and intestine homogenates (80 μg of protein) were separated on a 10% polyacrylamide SDS-gel, transferred to a membrane, and Western blotted with an antibody against bovine lactoferrin (upper panel of FIG. 7). The relative amounts of bovine lactoferrin in each lane were recorded by densitometry (lower panel of FIG. 7). The order of the plasma samples shown in the histograph is the same for the Western blot.
A group of 5 tumour-bearing mice were fed an iron-saturated bovine lactoferrin diet. Mice were killed on days described in Example 6, and tissues from multiple organs, including different regions of the intestine, were collected. Organ homogenates (80 μg of protein) were separated on a 10% polyacrylamide SDS-gel, transferred to a membrane, and blotted with either an antibody against bovine lactoferrin (upper panel of FIG. 8A) or an anti-α-tubulin mAb (middle panel of FIG. 8A). Bovine lactoferrin (1 μg) was included as a standard. The relative amounts of bovine lactoferrin in each lane were recorded by densitometry (lower panel of FIG. 8A). The order of the plasma samples shown in the histograph is the same for the Western blot. […] Roughly equal amounts of bovine lactoferrin were retained by the proximal and distal regions of the small intestine, and the large intestine.

[2] = test system: B16 melanoma tumours; assay: B16 melanoma tumour growth in mice; format: in vivo, C57BL/6 mice; details: Example 18; 28 g Fe-Lf per 2.4 Kg diet; fluorouracil 150 mg/Kg i.p.
Description: (§1) Tumors were established by s.c. injection of 2×10^5 EL-4 cells into the left flank of mice, and growth determined by measuring two perpendicular diameters. Animals were euthanased when tumors reached more than 1.0 cm in diameter, in accord with Animal Ethics Approval (University of Auckland). All experiments included 5 mice per treatment group, unless otherwise indicated. Paclitaxel (30 mg dissolved in 5 ml of Cremophor® EL and dehydrated alcohol) was diluted in 0.9% NaCl and administered i.p. at 30 mg/Kg. Doxorubucin in water was injected i.p. at 15 mg/Kg. The drugs were injected in a volume of 0.01 to 0.02 ml/g body weight. The expression vector encoding mouse B7-1 was prepared by cesium chloride gradient centrifugation, and diluted to 5 μg/μl in a solution of 5% glucose in 0.01% Triton X-100. It was mixed in a ratio of 1:1 (wt:wt) with DOTAP cationic liposomes (Boehringer Mannheim, Germany). Tumors were injected with 180 μl of DNA (180 μg)/liposome complexes, as described previously (Kanwar, et al., 1999 and Kanwar, et al., 2000).
(§2) Mice were fed the control diet, and the same diet supplemented with 28 g of 100% Fe-saturated lactoferrin per 2.4 Kg of diet. EL-4 (2×10^5), Lewis lung carcinoma (LLC, 2×10^5), and B16 melanoma (2×10^5) tumour cells were injected into the left flanks of C57BL/6 mice following two weeks on the Lf diets, or control diet. […]

[3] = test system: B16 target cells; assay: Anti-tumour cytolytic activity of splenocytes against B16 target cells; format: in vivo, C57BL/6 mice; details: Example 18, FIG. 14D (fluorouracil experiment), vs controls
Description: (§3) Splenocytes were tested for their cytolytic activity against tumour target cells. […] Referring to FIGS. 14B, D, and F the percent cytotoxicity is plotted against various effector-to-target cell ratios (E:T ratios); each point represents the mean percent cytotoxicity obtained from 5 mice; and the bar represents 95% confidence intervals.

[4] = test system: EL-4 target cells; assay: Anti-tumour CTL and/or NK cell cytolytic activity of splenocytes against EL-4 target cells; details: for increase in anti-tumour CTL and/or NK cell activity: Example 2, day 98; for increase in anti-tumour cytolytic activity: Example 18, EL-4, vs controls
Description: Splenocytes were harvested 28 days following tumour cell injection, as specified. They were incubated at 37° C. with EL-4 target cells in graded E:T ratios in 96-well round-bottom plates. After a 4-hour incubation, 50 μl of supernatant was collected, and lysis was measured using the Cyto Tox 96 Assay Kit (Promega, Madison, Wis., USA). Background controls for non-specific target and effector cell lysis were included. After background subtraction, percentage of cell lysis was calculated using the formula: 100× (experimental-spontaneous effector-spontaneous target/maximum target-spontaneous target).

[5] = test system: Lewis lung carcinoma (LLC) tumours; assay: Lewis lung carcinoma tumour growth in mice; format: in vivo, C57BL/6 mice; details: Example 18; 28 g Fe-Lf per 2.4 Kg diet; epirubucin 15 mg/Kg i.p.
Description: as §1, §2

[6] = test system: LLC target cells; assay: Anti-tumour cytolytic activity of splenocytes against LLC target cells; format: in vivo, C57BL/6 mice; details: Example 18, FIG. 14B (epirubucin experiment), vs controls
Description: as §3

[7] = test system: EL-4 tumours; assay: EL-4 tumour growth in mice (s.c. flank tumour model); format: in vivo, C57BL/6 mice; details: for inhibition of tumour growth: Example 1, oral diet, day 42

B1: iron-saturated bovine lactoferrin: Iron-saturated bovine lactoferrin extract (100% saturated) prepared from natural bLf (protein)
chain: APRKNVRWCTISQPEWFKCRRWQWRMKKLGAPSITCVRRAFALECIRAIAEKKADAVTLDGGMVFEAGRDPYKLRPVAAEIYGTKESPQTHYYAVAVVKKGSNFQLDQLQGRKSCHTGLGRSAGWIIPMGILRPYLSWTESLEPLQGAVAKFFSASCVPCIDRQAYPNLCQLCKGEGENQCACSSREPYFGYSGAFKCLQDGAGDVAFVKETTVFENLPEKADRDQYELLCLNNSRAPVDAFKECHLAQVPSHAVVARSVDGKEDLIWKLLSKAQEKFGKNKSRSFQLFGSPPGQRDLLFKDSALGFLRIPSKVDSALYLGSRYLTTLKNLRETAEEVKARYTRVVWCAVGPEEQKKCQQWSQQSGQNVTCATASTTDDCIVLVLKGEADALNLDGGYIYTAGKCGLVPVLAENRKSSKHSSLDCVLRPTEGYLAVAVVKKANEGLTWNSLKDKKSCHTAVDRTAGWNIPMGLIVNQTGSCAFDEFFSQSCAPGADPKSRLCALCAGDDQGLDKCVPNSKEKYYGYTGAFRCLAEDVGDVAFVKNDTVWENTNGESTADWAKNLNREDFRLLCLDGTRKPVTEAQSCHLAVAPNHAVVSRSDRAAHVKQVLLHQQALFGKNGKNCPDKFCLFKSETKNLLFNDNTECLAKLGGRPTYEEYLGTEYVTAIANLKKCSTSPLLEACAFLTR
modifications: iron-saturated; Bovine Lactoferrin
notes: Iron-saturated bovine lactoferrin extract (100% saturated) prepared from natural bLf
state of bovine lactoferrin in plasma ([1]; Example 9, Western blot): largely undegraded
75 kDa band characteristic of lactoferrin in plasma ([1]; Example 9, Western blot of plasma): present
75 kDa band and partially degraded products in tumour and small intestine ([1]; Example 10, homogenates): present in homogenates of both the tumour and small intestine
bovine lactoferrin of 75 kDa in organs ([1]; Example 11, organ homogenates): present in all regions of the intestine, and in the liver, but it was also present in lesser amounts in spleen, heart, lung, kidney, and brain
B16 tumour response [2]: slowed the growth of all three tumour types, but failed to eradicate the tumours altogether
increase in anti-tumour cytolytic activity [3]: 45%
anti-tumour CTL and/or NK cell activity of splenocytes ([4]; Example 1, splenocytes at day 42, vs control diet): significantly (P<0.05) increased
increase in anti-tumour CTL and/or NK cell activity ([4]; mice that remained tumour-free, vs control diet, P<0.001): 6 fold
increase in anti-tumour CTL and/or NK cell activity ([4]; mice who developed tumours and were switched to control diet, vs control diet, P<0.001): 30 fold
increase in anti-tumour cytolytic activity of splenocytes ([4]; Example 15, the one mouse that resisted the tumour challenge, vs control, P<0.001): 6 fold
increase in anti-tumour cytolytic activities of splenocytes ([4]; Example 16, 6 of 30 mice that rejected the tumour on 1, 5 and 25 g diets, p<0.001): 3 to 4.6 fold
increase in anti-tumour cytolytic activity ([4]; FIG. 14B (epirubucin experiment)): 130%
increase in anti-tumour cytolytic activity ([4]; FIG. 14D (fluorouracil experiment)): 87%
increase in anti-tumour cytolytic activity ([4]; FIG. 14F (cyclophosphamide/methotrexate experiment)): 100%
LLC tumour response [5]: slowed the growth of all three tumour types, but failed to eradicate the tumours altogether
increase in anti-tumour cytolytic activity [6]: 150%
inhibition of tumour growth ([7]; 2 of 5 mice, vs control diet, P>0.05): 31%
inhibition of tumour growth ([7]; the latter 3 mice (tumours first prevented for one week), P<0.05): 51%
mice remaining completely tumour-free ([7]; Example 2, of 24 mice, monitored 11 weeks): Four
mice that resisted the tumour challenge for 6 weeks ([7]; Example 2, of 24 mice, tumours then grew at reduced rate): Five
time for tumours to reach 0.4 cm in diameter ([7]; Example 13, diet started at ~0.2 cm, control mice one week): two
mice of ten that completely rejected the tumour challenge ([7]; Example 15, 20 g of Lf per 2.4 Kg diet): one
mice of ten that completely rejected the tumour challenge ([7]; Example 16, 1 g Fe-Lf per 2.4 Kg diet): one
tumour growth rate vs control diet ([7]; Example 16, 5 and 25 g per 2.4 Kg diet): grew significantly (p<0.05 at days 35-49) more slowly
mice of ten that completely rejected the tumour challenge ([7]; Example 16, 5 g Fe-Lf per 2.4 Kg diet): two
mice of ten that completely rejected the tumour challenge ([7]; Example 16, 25 g Fe-Lf per 2.4 Kg diet): three
tumour growth rate vs control diet ([7]; Example 16, lowest and highest doses (1 and 100 g per 2.4 Kg diet)): did not differ greatly
EL-4 tumour response ([7]; Example 18, 28 g Fe-Lf per 2.4 Kg diet, drugs i.p. at ~0.4 to 0.5 cm): slowed the growth of all three tumour types, but failed to eradicate the tumours altogether
